Patent US20090104196A1 (UNIVERSITAETSKLINIKUM FREIBURG, published 2009)

Biological target: T1, LSD1 1-174 (N-terminus of LSD1), labelled (UniProt O60341 1-174)
T1 construct: Labelled LSD1 deletion mutant used in the GST pull-down; not shown: Flag tag of the CMX-Flag vector
Test: GST pull-down, labelled LSD1 mutant
Experimental: GST, GST-Nix1, GST-ROR[…], and GST ERβ-NTD proteins were used as control. (NTD; N-terminal domain, DBD; DNA-binding domain, LBD; ligand-binding domain).
GST pull-down assays were performed with equal amounts of GST or GST fusion proteins as described¹⁷ using buffer containing either 150 mM KCl, 0.15% NP40 (FIG. 1b) or 600 mM KCl, 0.3% NP40 (FIG. 7a). Pull-downs with sepharose coupled histone H3 tail were performed as described²⁷ in 20 mM Tris pH 8.5, 150 mM NaCl, 0.5% NP40.10% of the in vitro translated proteins were loaded as input.

binding result: no binding
B1: GST-AR-DBD (GST fused to the DNA-binding domain of the androgen receptor), bacterially expressed (other, UniProt P10275 560-632, looked up)
chain: CLICGDEASGCHYGALTCGSCKVFFKRAAEGKQKYLCASRNDCTIDKFRRKNCPSCRLRKCYEAGMTLGARKL
notes: also called GST-AR fusion protein; not shown: glutathione S-transferase (GST) fusion partner
